Results: patent US20160250128A1 (INFINITEC ACTIVOS S L, published 2016)

B1: Pamitoyl-Ser-Tyr-Ser-Nle-Glu-His-DPhe-Arg-(L-3,4-dihydroxyphenylalanine)-Gly-Lys-DPro-Val-NH-(CH2)3-(OCH2CH2)2-CH2-NH2, coupled to capsules (peptide)
peptide: SYSXEHFRXGKPV
modifications: N-terminal palmitoyl; Nle at 4 (X); D-Phe at 7; L-3,4-dihydroxyphenylalanine at 9 (X); D-Pro at 12; C-terminal NH-(CH2)3-(OCH2CH2)2-CH2-NH2
notes: Coupled to the outer surface of fluorescent polymer capsules in the assay; also called peptide of formula (I), AA1 = L-3,4-dihydroxyphenylalanine
B2: Pamitoyl-Ser-Tyr-Ser-Nle-Glu-His-DPhe-Arg-(3-amino-3-(biphenyl) propionic acid)-Gly-Lys-DPro-Val-NH-(CH2)3-(OCH2CH2)2-CH2-NH2, coupled to capsules (peptide)
peptide: SYSXEHFRXGKPV
modifications: N-terminal palmitoyl; Nle at 4 (X); D-Phe at 7; 3-amino-3-(biphenyl) propionic acid at 9 (X); D-Pro at 12; C-terminal NH-(CH2)3-(OCH2CH2)2-CH2-NH2
notes: Coupled to the outer surface of fluorescent polymer capsules in the assay; also called peptide of formula (I), AA1 = 3-amino-3-(biphenyl) propionic acid
B3: Pamitoyl-Ser-Tyr-Ser-Nle-Glu-His-DPhe-Arg-(3-amino-3-(1-naphthyl) propionic acid)-Gly-Lys-DPro-Val-NH-(CH2)3-(OCH2CH2)2-CH2-NH2, coupled to capsules (peptide)
peptide: SYSXEHFRXGKPV
modifications: N-terminal palmitoyl; Nle at 4 (X); D-Phe at 7; 3-amino-3-(1-naphthyl) propionic acid at 9 (X); D-Pro at 12; C-terminal NH-(CH2)3-(OCH2CH2)2-CH2-NH2
notes: Coupled to the outer surface of fluorescent polymer capsules in the assay; also called peptide of formula (I), AA1 = 3-amino-3-(1-naphthyl) propionic acid
B4: Pamitoyl-Ser-Tyr-Ser-Nle-Glu-His-DPhe-Arg-His-Gly-Lys-DPro-Val-NH-(CH2)3-(OCH2CH2)2-CH2-NH2, coupled to capsules (peptide)
peptide: SYSXEHFRHGKPV
modifications: N-terminal palmitoyl; Nle at 4 (X); D-Phe at 7; D-Pro at 12; C-terminal NH-(CH2)3-(OCH2CH2)2-CH2-NH2
notes: Coupled to the outer surface of fluorescent polymer capsules in the assay; Stereochemistry of the residue at 9 is not specified; also called peptide of formula (I), AA1 = Histidine
B5: Pamitoyl-Ser-Tyr-Ser-Nle-Glu-His-DPhe-Arg-Tyr-Gly-Lys-DPro-Val-NH-(CH2)3-(OCH2CH2)2-CH2-NH2, coupled to capsules (peptide)
peptide: SYSXEHFRYGKPV
modifications: N-terminal palmitoyl; Nle at 4 (X); D-Phe at 7; D-Pro at 12; C-terminal NH-(CH2)3-(OCH2CH2)2-CH2-NH2
notes: Coupled to the outer surface of fluorescent polymer capsules in the assay; Stereochemistry of the residue at 9 is not specified; also called peptide of formula (I), AA1 = Tyrosine
B6: Pamitoyl-Ser-Tyr-Ser-Nle-Glu-His-DPhe-Arg-Phe-Gly-Lys-DPro-Val-NH-(CH2)3-(OCH2CH2)2-CH2-NH2, coupled to capsules (peptide)
peptide: SYSXEHFRFGKPV
modifications: N-terminal palmitoyl; Nle at 4 (X); D-Phe at 7; D-Pro at 12; C-terminal NH-(CH2)3-(OCH2CH2)2-CH2-NH2
notes: Coupled to the outer surface of fluorescent polymer capsules in the assay; Stereochemistry of the residue at 9 is not specified; also called peptide of formula (I), AA1 = Phenylalanine
B7: Pamitoyl-Ser-Tyr-Ser-Nle-Glu-His-DPhe-Arg-(5-hydroxytryptophan)-Gly-Lys-DPro-Val-NH-(CH2)3-(OCH2CH2)2-CH2-NH2, coupled to capsules (peptide)
peptide: SYSXEHFRXGKPV
modifications: N-terminal palmitoyl; Nle at 4 (X); D-Phe at 7; 5-hydroxytryptophan at 9 (X); D-Pro at 12; C-terminal NH-(CH2)3-(OCH2CH2)2-CH2-NH2
notes: Coupled to the outer surface of fluorescent polymer capsules in the assay; also called peptide of formula (I), AA1 = 5-hydroxytryptophan
B8: Pamitoyl-Ser-Tyr-Ser-Nle-Glu-His-DPhe-Arg-(3-(2-Naphthyl)-D-alanine)-Gly-Lys-DPro-Val-NH-(CH2)3-(OCH2CH2)2-CH2-NH2, coupled to capsules (peptide)
peptide: SYSXEHFRXGKPV
modifications: N-terminal palmitoyl; Nle at 4 (X); D-Phe at 7; 3-(2-Naphthyl)-D-alanine at 9 (X); D-Pro at 12; C-terminal NH-(CH2)3-(OCH2CH2)2-CH2-NH2
notes: Coupled to the outer surface of fluorescent polymer capsules in the assay; also called peptide of formula (I), AA1 = 3-(2-Naphthyl)-D-alanine
B9: Palm-Ile-Ser-Leu-Leu-Asp-Ala-Gln-Ser-NH2 (peptide)
peptide: ISLLDAQS
HELM: PEPTIDE1{[CCCCCCCCCCCCCCCC(=O)[*:2]].I.S.L.L.D.A.Q.S.[am]}$$$$V2.0
SMILES: CCCCCCCCCCCCCCCC(=O)N[C@H](C(=O)N[C@@H](CO)C(=O)N[C@@H](CC(C)C)C(=O)N[C@@H](CC(C)C)C(=O)N[C@@H](CC(=O)O)C(=O)N[C@@H](C)C(=O)N[C@@H](CCC(N)=O)C(=O)N[C@@H](CO)C(N)=O)[C@@H](C)CC
B10: Palm-Ile-Ser-Leu-Leu-Asp-(d)Ala-Gln-Ser-NH2 (peptide)
peptide: ISLLDAQS
HELM: PEPTIDE1{[CCCCCCCCCCCCCCCC(=O)[*:2]].I.S.L.L.D.[dA].Q.S.[am]}$$$$V2.0
SMILES: CCCCCCCCCCCCCCCC(=O)N[C@H](C(=O)N[C@@H](CO)C(=O)N[C@@H](CC(C)C)C(=O)N[C@@H](CC(C)C)C(=O)N[C@@H](CC(=O)O)C(=O)N[C@H](C)C(=O)N[C@@H](CCC(N)=O)C(=O)N[C@@H](CO)C(N)=O)[C@@H](C)CC
B11: Palm-Ile-Ser-(d)Leu-Leu-Asp-(d)Ala-Gln-Ser-NH2 (peptide)
peptide: ISLLDAQS
HELM: PEPTIDE1{[CCCCCCCCCCCCCCCC(=O)[*:2]].I.S.[dL].L.D.[dA].Q.S.[am]}$$$$V2.0
SMILES: CCCCCCCCCCCCCCCC(=O)N[C@H](C(=O)N[C@@H](CO)C(=O)N[C@H](CC(C)C)C(=O)N[C@@H](CC(C)C)C(=O)N[C@@H](CC(=O)O)C(=O)N[C@H](C)C(=O)N[C@@H](CCC(N)=O)C(=O)N[C@@H](CO)C(N)=O)[C@@H](C)CC
B12: Ac-Ile-Ser-(d)Leu-Leu-Asp-(d)Ala-Gln-Ser-NH2 (peptide)
peptide: ISLLDAQS
HELM: PEPTIDE1{[ac].I.S.[dL].L.D.[dA].Q.S.[am]}$$$$V2.0
SMILES: CC[C@H](C)[C@H](NC(C)=O)C(=O)N[C@@H](CO)C(=O)N[C@H](CC(C)C)C(=O)N[C@@H](CC(C)C)C(=O)N[C@@H](CC(=O)O)C(=O)N[C@H](C)C(=O)N[C@@H](CCC(N)=O)C(=O)N[C@@H](CO)C(N)=O
B13: Ac-Ile-Ser-Leu-Leu-Asp-(d)Ala-Gln-Ser-NH2 (peptide)
peptide: ISLLDAQS
HELM: PEPTIDE1{[ac].I.S.L.L.D.[dA].Q.S.[am]}$$$$V2.0
SMILES: CC[C@H](C)[C@H](NC(C)=O)C(=O)N[C@@H](CO)C(=O)N[C@@H](CC(C)C)C(=O)N[C@@H](CC(C)C)C(=O)N[C@@H](CC(=O)O)C(=O)N[C@H](C)C(=O)N[C@@H](CCC(N)=O)C(=O)N[C@@H](CO)C(N)=O

Each binder was assayed against T1, Melanocortin receptor 1 (MC1R) on melanocytes (human, UniProt Q01726 1-317) (assay: flow cytometry, cell-associated fluorescence of peptide-targeted capsules (50 µg/mL, 37° C., 3 h) on melanocytes in a mixed cell population).
T1 construct: whole, on cells; also called MC1 receptor; MCR1 receptors on the melanocyte
T1 sequence (Q01726 whole entry): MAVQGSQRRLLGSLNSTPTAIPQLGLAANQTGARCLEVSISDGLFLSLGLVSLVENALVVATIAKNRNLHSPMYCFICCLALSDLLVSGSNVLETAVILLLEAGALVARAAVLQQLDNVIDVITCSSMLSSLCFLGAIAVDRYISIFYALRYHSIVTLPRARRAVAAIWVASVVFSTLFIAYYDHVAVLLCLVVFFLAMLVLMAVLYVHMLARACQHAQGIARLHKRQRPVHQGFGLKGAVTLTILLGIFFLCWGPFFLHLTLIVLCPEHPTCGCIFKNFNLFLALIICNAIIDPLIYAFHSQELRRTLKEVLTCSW
Method: Distinct types of cells were incubated with the capsules of the invention (50 μg/mL) which have been targeted with different peptides of formula (Ia) or non-targeted capsules (50 μg/mL) at 37° C. for 3 h. The peptides of formula (I) used to target the capsules in this example are peptides of formula Pamitoyl-Ser-Tyr-Ser-Nle-Glu-His-DPhe-Arg-(AA₁)-Gly-Lys-DPro-Val-NH—(CH₂)₃—(OCH₂CH₂)₂—CH₂—NH₂ wherein the nature of the aminoacid in position 9 (AA₁) is indicated in the first column of table 3. Cells were washed and stained with receptor-specific antibody or isotype control antibody to specifically detect distinct types of cells. Subsequently, cells were analyzed by flow cytometry on a FacsCalibur. The cell associated fluorescence was calculated by dividing the mean cell fluorescence intensity (mfi) for a given sample by the mfi of melanocytes incubated with targeted capsules, which was set at 100% (see FIG. 5 and table 4).

Cell specific binding (%)	Binder
80%	B1
74%	B2
75%	B3
58%	B4
80%	B5
85%	B6
73%	B7
71%	B8

The binders below were run against Mushroom Tyrosinase (mushroom) (assay: cell-based or functional assay).

% INHIBITION TYROSINASE	Binder
39%	B9
42%	B10
28%	Ac-ISLLDAQS-NH2 [Ac-Ile-Ser-Leu-Leu-Asp-Ala-Gln-Ser-NH2]
48%	B11
40%	B12
31%	B13
